Reference: paper PMC6155126 (Nature Communications, 2018)

Target: FLAG-Pol λ-WT (human, UniProt Q9UGP5 1-575)
Assay: cell-based or functional assay

B1: FLAG-XRCC4 (natural protein, human, UniProt Q13426 1-336, looked up)
chain: MERKISRIHLVSEPSITHFLQVSWEKTLESGFVITLTDGHSAWTGTVSESEISQEADDMAMEKGKYVGELRKALLSGAGPADVYTFNFSKESCYFFFEKNLKDVSFRLGSFNLEKVENPAEVIRELICYCLDTIAENQAKNEHLQKENERLLRDWNDVQGRFEKCVSAKEALETDLYKRFILVLNEKKTKIRSLHNKLLNAAQEREKDIKQEGETAICSEMTADRDPVYDESTDEESENQTDLSGLASAAVSKDDSIISSLDVTDIAPSRKRRQRMQRNLGTEPKMAPQENQLQEKENSRPDSSLPETSKKEHISAENMSLETLRNSSPEDLFDEI
- Pol λ-dependent gap filling synthesis on a 5nt-gapped dsDNA (33-mer), stimulation by added protein over a concentration series: ≤ 10 fold
